Assay results reported in patent publication US11254722B2, “Recombinant proteins and uses thereof” (ACADEMIA SINICA, priority 2017, dated 2022).

T1: VEGF (Homo sapiens, UniProt P15692)
T1 construct: purchased R&D Systems
T1 sequence (P15692 27-191 isoform P15692-4): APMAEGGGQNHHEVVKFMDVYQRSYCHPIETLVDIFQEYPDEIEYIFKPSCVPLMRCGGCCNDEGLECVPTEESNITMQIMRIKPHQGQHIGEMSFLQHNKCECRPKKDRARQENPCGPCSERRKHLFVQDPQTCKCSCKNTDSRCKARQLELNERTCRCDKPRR

B1: h3t33fc: IGFBP3 with IGFBP3 linker deletion 1-Fc, SEQ ID NO: 8 (protein)
chain: MSEVPVARVWLVLLLLTVQVGVTAGGASSAGLGPVVRCEPCDARALAQCAPPPAVCAELVREPGCGCCLTCALSEGQPCGIYTERCGSGLRCQPSPDEARPLQALLDGRGLCVNASAVSKGHAKDSQRYKVDYESQSTDTQNFSSESKRETEYGPCRREMEDTLNHLKFLNVLSPRGVHIPNCDKKGFYKKKQCRPSKGRKRGFCWCVDKYGQPLPGYTTKGKEDVHCYSMQSKVECPPCPAPPVAGPSVFLFPPKPKDQLMISRTPEVTCVVVDVSHEDPEVKFNWYVDGVEVHNAKTKPREEQYNSTYRVVSVLTVLHQDWLNGKEYKCKVSNKGLPSSIEKTISKAKGQPREPQVYTLPPSREEMTKNQVSLTCLVKGFYPSDIAVEWESNGQPENNYKTTPPVLDSDGSFFLYSKLTVDKSRWQQGNVFSCSVMHEGLHNHYTQKSLSLSPGK

What was measured:
[1] = test system: fibroblasts; experiment: Proliferation induced by PDGF BB in fibroblasts (Table 8); format: cell-based
Experimental: (§1) For the proliferation assay, cells except for HUVEC were seeded at a density of 1,000 to 6,000 in 96 wells in an assay buffer of DMEM/F12 plus 0.2% BSA and 10 ug/ml transferrin. Chemical inhibitors were added after 16-20 hours after plating; IGF-1 or other growth factors or test chimeras in assay buffer were added at the time of plating or 16-20 hours after plating. 5,000 HUVEC ells were plated in poly-L-lysine coated 96 wells in M199 with 1%/FBS and HEPES. After 3 to 4 days of culture, growth was determined by incubating cells with Alamar blue for 4 to 6 hours and then the fluorescence (RFU) at 544/590 nm was read. For long term proliferation assays, cells were plated in the growth media with 5% or 10% FBS at densities of 500 to 10,000 cells per cm^2 growth area and grown for 7 to 21 days. Inhibitors and effectors were added 1-4 days after plating. Cells were exposed to cisplatin or gemcitabine for two days. Medium was renewed twice weekly. At completion, cells were fixed and then stained with Giemsa.
(§2) The BP3-fc construct inhibited the proliferation of cancer cells that had been stimulated by IGF-1, IGF-2, neuregulin, HGF, and bFGF.

[2] = test system: cancer cells; experiment: In vitro proliferation of cancer cells stimulated by growth factors (Table 8); format: cell-based
Experimental: as §1, §2

[3] = molecular target: T1, VEGF; experiment: In vitro proliferation stimulated by VEGF (Table 8); format: cell-based
Experimental: as §1
The BP3-VEGF-trap-fc (including the IGFBP3 domains, the VEGFR1 domain 2 and VEGFR2 domain 3 (VEGF-trap (22)), and human immunoglobulin Fc region) broadened the binding to include VEGF-A, VEGF-B, and placental growth factor (PIGF). This BP3-VEGF-trap chimera could inhibit the proliferation stimulated by IGF-1, IGF-2, neuregulin, PDGF-BB, HGF, bFGF, VEGF-A, and PIGF (see, Table 8).

[4] = molecular target: T2, TGF-α (Homo sapiens, UniProt P01135); experiment: Biacore binding to TGF-α; conditions: Table 5
T2 construct: purchased R&D Sciences or SinoBiologicals
T2 sequence (P01135 40-89 limits assumed): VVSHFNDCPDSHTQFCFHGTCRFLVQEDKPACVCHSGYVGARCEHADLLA
Experimental: (§3) Biacore binding was performed at David Myszka's laboratory at the University of Utah or at the Genomic Research Center at Academia Sinica. Surfaces of binding protein chimera were made via chemical immobilization on a CM4 chip using standard amine coupling chemistry. […] Excess surface carboxyl activated sites on all four flow cells was blocked using the doubly positively charged species ethylenediamine. Binding experiments (but not immobilizations) in HBS-P (10 mM HEPES pH 7.4, 150 mM NaCl, 0.05% P20), The HBS-P was supplemented with BSA at 0.2 mg/mL, or HBS-P was supplemented with 500 mM NaCl (650 mM NaCl, final concentration). Analytes were also reconstituted in the corresponding buffer. All experiments were performed at 25° C. 1/150 dilutions of phosphoric acid were used to regenerate IGFBP3-Fc surfaces and a sequence of 3 M MgCl2 followed by 5 M GuCl was used to regenerate surfaces immobilized with growth factor. Dissociation constants reported below used immobilized binding protein unless noted. Differences between binding constants may be expected between growth factor immobilization and chimera immobilization.

[5] = test system: MCF-7 breast cancer cells; experiment: MCF-7 proliferation assay; format: cell-based; conditions: FIG. 5
Experimental: (§4) MCF-7 cells (a breast cancer cell line) were maintained in MEM (GIBCO) plus insulin and NEAA and 10% FBS (Hyclone).
as §1
We next examined the effect of 56662 (BP3/Fc) on the proliferation induced by growth factors that interacted with the IGFBP3. The proliferation of MCF-7 breast cancer cells was induced in serum-free medium by individual growth factors like IGF-1, IGF-2, EGF, TGF-a, Nrgbx, b-FGF, and amphiregulin (FIG. 1).

[6] = test system: hep3B cells; experiment: hep3B proliferation assay; format: cell-based, human
Procedure, shortened: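 Cells seeded at 1,000 to 6,000 per well in DMEM/F12 with 0.2% BSA and 10 ug/ml transferrin. Inhibitors added 16-20 h after plating; IGF-1 or other growth factors at plating or 16-20 h later. After 3 to 4 days, growth read by Alamar blue fluorescence at 544/590 nm after 4 to 6 h.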

[7] = molecular target: T1, VEGF; experiment: Biacore binding to VEGF; conditions: Table 5; the kd is very low and difficult to measure
Experimental: as §3

[8] = test system: HUVEC cells; experiment: HUVEC proliferation assay; format: cell-based
Experimental: as §4, §1
Growth factor synergism can also be observed in the proliferation of HUVEC cells.

| Molecule | inhibition of proliferation stimulated by PDGF BB [1] | inhibition of proliferation stimulated by HGF [2] | inhibition of proliferation stimulated by IGF-1 [2] | inhibition of proliferation stimulated by IGF-2 [2] | inhibition of proliferation stimulated by bFGF [2] | inhibition of proliferation stimulated by nrgbx [2] | inhibition of proliferation stimulated by VEGF [3] | Dissociation Constants, TGF-α [4] | inhibition of IGF-1-induced proliferation of MCF-7, compared to 56662 and chimera B [5] | increase of inhibitory activity of erlotinib ([6]; 100 nM chimera h3t33Fc, hep3B) | inhibition of hep3B cells treated with erlotinib ([6]; combination with erlotinib, FIG. 15, FIG. 16A) | Dissociation Constants, VEGF [7] | inhibition of VEGF-induced proliferation of HUVEC cells ([8]; FIG. 6, FIG. 13) | inhibition of HUVEC proliferation induced by IGF, bFGF, HGF or a combination ([8]; FIG. 13) |
| --- | --- | --- | --- | --- | --- | --- | --- | --- | --- | --- | --- | --- | --- | --- |
| VEGF-trap: the VEGFR1 domain 2 and VEGFR2 domain 3 (VEGF-trap (22)) [reference compound] | no | no | no | no | no | no | inh |  |  |  |  |  |  |  |
| B1 |  |  |  |  |  |  |  | no binding | a smaller EC50 and a higher maximal inhibition | about 100 fold | synergistically inhibited | no binding | did not inhibit | inhibited |
